Experimental data from patent US9549967B2, “Regulation of sodium channels by PLUNC proteins” (The University of North Carolina at Chapel Hill, priority 2009, dated 2017).
“Also recorded” adds a separate entry of the source.

B1: recombinant SPLUNC1 that had been reduced with DTT: recombinant SPLUNC1 reduced with DTT (protein, UniProt Q9NP55 20-256, looked up)
BPI fold-containing family A …: QFGGLPVPLDQTLPLNVNPALPLSPTGLAGSLTNALSNGLLSGGLLGILENLPLLDILKPGGGTSGGLLGGLLGKVTSVIPGLNNIIDIKVTDPQLLELGLVQSPDGHRLYVTIPLGIKLQVNTPLVGASLLRLAVKLDITAEILAVRDKQERIHLVLGDCTHSPGSLQISLLDGLGPLPIQGLLDSLTGILNKVLPELVQGNVCPLVNEVLRGLDITLVHDIVNMLIHGLQFVIKV
modifications: DTT-reduced
B2: SPLUNC2: human SPLUNC2 protein (SEQ ID NO:2), co-expressed in oocytes (protein, listed as Homo sapiens)
chain: MLQLWKLVLLCGVLTGTSESLLDNLGNDLSNVVDKLEPVLHEGLETVDNTLKGILEKLKVDLGVLQKSSAWQLAKQKAQEAEKLLNNVISKLLPTNTDIFGLKISNSLILDVKAEPIDDGKGLNLSFPVTANVTVAGPIIGQIINLKASLDLLTAVTIETDPQTHQPVAVLGECASDPTSISLSLLDKHSQIINKFVNSVINTLKSTVSSLLQKEICPLIRIFIHSLDVNVIQQVVDNPQHKTQLQTLI
B3: LPLUNC1: long PLUNC family member co-expressed in oocytes (protein)
chain: TLSPTAVLILGPKVIKEKLTQELKDHNATSILQQLPLLSAMREKPAGGIPVLGSLVNTVLKHIIWLKVITANILQLQVKPSANDQELLVKIPLDMVAGFNTPLVKTIVEFHMTTEAQATIRMDTSASGPTRLVLSDCATSHGSLRIQLLHKLSFLVNALAKQVMNLLVPSLPNLVKNQLCPVIEASFNGMYADLLQLVKVPISLSIDRLEFDLLYPAIKGDTIQLYLGAKLLDSQGKVTKWFNNSAASLTMPTLDNIPFSLIVSQDVVKAAVAAVLSPEEFMVLLDSVLPESAHRLKSSIGLINEKAADKLGSTQIVKILTQDTPEFFIDQGHAKVAQLIVLEVFPSSEALRPLFTLGIEASSEAQFYTKGDQLILNLNNISSDRIQLMNSGIGWFQPDVLKNIITEIIHSILLPNQNGKLRSGVPVSLVKALGFEAAESSLTKDALVLTPASLWKPSSPVSQ

How the values were obtained:
Format in all cases: cell-based
CFTR = target: T1, CFTR (Homo sapiens, UniProt P13569); assay: CFTR activity in Xenopus oocytes co-expressing CFTR and β2 adrenergic receptor; settings: 10 μM isoproterenol, β2AR co-expressed
T1 construct: expressed in transfected cells; host or cells: Xenopus laevis oocytes
T1 sequence (P13569 whole entry, species assumed): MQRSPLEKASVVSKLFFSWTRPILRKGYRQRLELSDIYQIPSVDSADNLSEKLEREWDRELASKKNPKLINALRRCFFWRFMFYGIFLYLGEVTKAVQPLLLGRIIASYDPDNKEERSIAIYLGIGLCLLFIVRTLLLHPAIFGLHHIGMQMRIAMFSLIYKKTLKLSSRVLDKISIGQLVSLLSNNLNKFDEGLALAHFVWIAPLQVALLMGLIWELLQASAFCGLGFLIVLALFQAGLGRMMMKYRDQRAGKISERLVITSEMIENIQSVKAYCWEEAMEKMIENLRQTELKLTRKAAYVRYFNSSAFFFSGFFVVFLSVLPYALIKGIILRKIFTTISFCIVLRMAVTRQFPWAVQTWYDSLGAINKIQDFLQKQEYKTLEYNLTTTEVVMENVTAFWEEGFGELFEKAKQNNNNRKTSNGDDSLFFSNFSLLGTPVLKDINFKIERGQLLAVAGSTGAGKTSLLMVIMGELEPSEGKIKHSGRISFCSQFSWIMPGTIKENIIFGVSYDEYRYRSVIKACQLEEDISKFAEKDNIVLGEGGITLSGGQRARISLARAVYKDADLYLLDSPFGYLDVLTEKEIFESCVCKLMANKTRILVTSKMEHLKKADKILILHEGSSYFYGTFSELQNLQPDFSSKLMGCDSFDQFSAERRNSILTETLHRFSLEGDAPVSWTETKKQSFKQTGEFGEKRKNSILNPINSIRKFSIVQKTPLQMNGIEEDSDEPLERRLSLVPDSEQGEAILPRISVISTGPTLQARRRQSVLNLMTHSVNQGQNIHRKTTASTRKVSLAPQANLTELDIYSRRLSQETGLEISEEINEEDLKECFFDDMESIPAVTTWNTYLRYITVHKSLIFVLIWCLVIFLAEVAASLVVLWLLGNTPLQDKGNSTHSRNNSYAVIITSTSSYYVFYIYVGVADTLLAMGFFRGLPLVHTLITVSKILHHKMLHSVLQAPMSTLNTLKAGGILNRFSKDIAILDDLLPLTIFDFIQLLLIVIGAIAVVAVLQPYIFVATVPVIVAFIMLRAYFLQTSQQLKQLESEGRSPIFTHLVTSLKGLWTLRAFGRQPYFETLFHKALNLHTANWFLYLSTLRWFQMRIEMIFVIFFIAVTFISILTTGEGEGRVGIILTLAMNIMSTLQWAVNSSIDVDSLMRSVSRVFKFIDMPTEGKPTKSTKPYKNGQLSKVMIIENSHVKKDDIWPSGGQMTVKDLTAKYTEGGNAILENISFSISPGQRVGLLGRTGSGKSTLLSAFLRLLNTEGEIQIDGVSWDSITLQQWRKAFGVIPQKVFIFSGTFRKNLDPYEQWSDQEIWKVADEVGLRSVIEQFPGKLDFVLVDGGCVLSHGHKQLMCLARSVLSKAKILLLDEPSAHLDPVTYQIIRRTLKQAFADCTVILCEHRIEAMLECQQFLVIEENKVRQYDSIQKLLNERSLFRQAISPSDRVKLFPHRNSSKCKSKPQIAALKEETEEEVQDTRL
Method: (§1) Oocyte studies. Xenopus laevis oocytes were harvested and injected as described (Donaldson, et al., J. Biol. Chem. 277:8338 (2002)). Defolliculated healthy stage V-VI oocytes were injected with 0.3 ng of cRNA of each ENaC subunit. Injected oocytes were kept in modified Barth's saline (in mM: 88 NaCl, 1 KCl, 2.4 NaHCO3, 0.3 Ca(NO3)2, 0.41 CaCl2, 0.82 MgSO4, and 15 HEPES, adjusted to pH 7.35 with Tris). Oocytes were studied 24 hr after injection using the two electrode voltage clamp technique as previously described (Donaldson, et al., J. Biol. Chem. 277:8338 (2002)). Oocytes were clamped at a holding potential of […]. The change in amiloride-sensitive whole cell current as an indicator of ENaC activity was determined by subtracting the corresponding current value measured in the presence of 10 μM amiloride from that measured before the application of amiloride.
In both cases, we co-expressed CFTR with the β2 adrenergic receptor (β2AR) which can be stimulated with isoproterenol to raise cAMP and stimulate CFTR (Uezono et al., Receptors Channels 1:233 (1993)).

ENaC = target: T2, ENaC (Homo sapiens, UniProt P37088+P51168+P51170); assay: Transepithelial voltage under thin film conditions in human bronchial epithelial cultures (microelectrode); settings: prewashed cultures, PD remeasured 45 min later; DTT-reduced vs 50 ng/ml recombinant SPLUNC1
T2 construct: endogenous in cells; host or cells: primary human bronchial epithelial cultures
T2 sequence (P37088 1-669): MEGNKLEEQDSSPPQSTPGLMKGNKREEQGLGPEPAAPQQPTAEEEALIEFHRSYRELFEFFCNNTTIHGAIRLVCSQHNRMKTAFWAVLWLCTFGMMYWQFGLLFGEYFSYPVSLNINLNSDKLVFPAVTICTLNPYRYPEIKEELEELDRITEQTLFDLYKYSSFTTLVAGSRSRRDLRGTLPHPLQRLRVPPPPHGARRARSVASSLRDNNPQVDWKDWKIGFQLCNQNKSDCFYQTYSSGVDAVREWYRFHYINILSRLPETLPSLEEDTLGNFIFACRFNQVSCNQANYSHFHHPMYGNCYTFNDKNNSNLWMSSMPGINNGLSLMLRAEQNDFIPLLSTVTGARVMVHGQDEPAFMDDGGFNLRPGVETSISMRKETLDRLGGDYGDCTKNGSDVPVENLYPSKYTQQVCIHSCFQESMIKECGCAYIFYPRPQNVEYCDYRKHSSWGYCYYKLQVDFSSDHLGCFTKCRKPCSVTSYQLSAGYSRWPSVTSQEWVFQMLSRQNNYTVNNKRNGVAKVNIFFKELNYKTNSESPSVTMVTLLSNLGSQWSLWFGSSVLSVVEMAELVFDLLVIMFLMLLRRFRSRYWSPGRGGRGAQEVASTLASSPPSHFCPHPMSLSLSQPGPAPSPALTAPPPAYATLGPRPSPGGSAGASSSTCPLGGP
T2 sequence (P51168 1-640): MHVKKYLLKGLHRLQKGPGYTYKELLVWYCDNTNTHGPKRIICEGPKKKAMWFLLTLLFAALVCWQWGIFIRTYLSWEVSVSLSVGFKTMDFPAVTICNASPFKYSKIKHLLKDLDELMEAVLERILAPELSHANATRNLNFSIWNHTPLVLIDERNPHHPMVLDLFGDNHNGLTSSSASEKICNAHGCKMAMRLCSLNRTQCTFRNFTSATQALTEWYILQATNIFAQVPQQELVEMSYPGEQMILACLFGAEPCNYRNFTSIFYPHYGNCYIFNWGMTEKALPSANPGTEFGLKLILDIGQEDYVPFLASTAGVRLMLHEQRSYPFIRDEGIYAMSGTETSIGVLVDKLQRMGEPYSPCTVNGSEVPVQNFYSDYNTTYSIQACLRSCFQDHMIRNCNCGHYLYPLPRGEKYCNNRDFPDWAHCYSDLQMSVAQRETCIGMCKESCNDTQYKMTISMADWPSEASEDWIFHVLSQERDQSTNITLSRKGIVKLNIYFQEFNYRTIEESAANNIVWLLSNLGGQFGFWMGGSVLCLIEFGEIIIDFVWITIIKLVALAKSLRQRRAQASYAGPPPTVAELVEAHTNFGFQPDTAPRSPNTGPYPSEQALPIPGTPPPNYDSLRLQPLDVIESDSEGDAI
T2 sequence (P51170 1-649): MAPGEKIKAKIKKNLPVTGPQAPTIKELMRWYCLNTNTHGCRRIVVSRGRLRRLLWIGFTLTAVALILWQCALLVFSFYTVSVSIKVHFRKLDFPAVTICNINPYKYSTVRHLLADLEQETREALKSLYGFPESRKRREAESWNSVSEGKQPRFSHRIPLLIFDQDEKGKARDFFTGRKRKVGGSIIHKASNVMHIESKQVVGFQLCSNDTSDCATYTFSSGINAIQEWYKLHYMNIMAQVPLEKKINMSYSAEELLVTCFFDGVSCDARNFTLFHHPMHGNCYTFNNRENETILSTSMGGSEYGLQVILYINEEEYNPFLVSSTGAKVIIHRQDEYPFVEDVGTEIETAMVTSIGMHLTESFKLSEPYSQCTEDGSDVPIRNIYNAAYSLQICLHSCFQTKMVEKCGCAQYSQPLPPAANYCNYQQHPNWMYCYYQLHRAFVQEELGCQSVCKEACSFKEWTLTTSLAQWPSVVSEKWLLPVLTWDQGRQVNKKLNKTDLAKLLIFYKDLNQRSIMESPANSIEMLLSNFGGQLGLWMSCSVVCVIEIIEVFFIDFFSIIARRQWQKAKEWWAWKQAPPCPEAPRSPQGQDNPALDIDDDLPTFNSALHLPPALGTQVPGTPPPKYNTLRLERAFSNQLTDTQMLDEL
Excerpt: Tissue procurement and cell culture: Cells were harvested by enzymatic digestion from human bronchial tissue as previously described under a protocol approved by the UNC School of Medicine IRB (Tarran et al., J. Gen. Physiol. 127:591 (2006)). Human excess donor lungs and excised recipient lungs were obtained at the time of lung transplantation from portions of main stem or […] bronchi and cells were harvested by enzymatic digestion. All preparations were maintained at an air-liquid interface in a modified bronchial epithelial medium and used 2-5 weeks after seeding on 12 mm T-Clear inserts (Corning Costar) coated with human placental type VI collagen (Sigma). Phosphate buffered saline (PBS) was used for washing human bronchial epithelial culture mucosal surfaces.
Microelectrode studies. A single-barreled potential difference-sensing electrode was placed in the airway surface liquid by micromanipulator and used in conjunction with a macroelectrode in the serosal solution to measure transepithelial voltage using a voltmeter (World Precision Instruments). […] Transepithelial resistance was routinely measured using the EVOM system (WPI) as previously described (Tarran et al., J. Gen. Physiol. 127:591 (2006)).

αβγENaC = target: T3, αβγENaC (Rattus norvegicus, UniProt P37089+P37090+P37091); assay: Amiloride-sensitive whole cell current in Xenopus laevis oocytes expressing ENaC (two electrode voltage clamp); settings: co-expression with α,β,γ ENaC in oocytes, FIG. 13
T3 construct: expressed in transfected cells; host or cells: Xenopus laevis oocytes (cRNA injection)
T3 sequence (P37089 1-698): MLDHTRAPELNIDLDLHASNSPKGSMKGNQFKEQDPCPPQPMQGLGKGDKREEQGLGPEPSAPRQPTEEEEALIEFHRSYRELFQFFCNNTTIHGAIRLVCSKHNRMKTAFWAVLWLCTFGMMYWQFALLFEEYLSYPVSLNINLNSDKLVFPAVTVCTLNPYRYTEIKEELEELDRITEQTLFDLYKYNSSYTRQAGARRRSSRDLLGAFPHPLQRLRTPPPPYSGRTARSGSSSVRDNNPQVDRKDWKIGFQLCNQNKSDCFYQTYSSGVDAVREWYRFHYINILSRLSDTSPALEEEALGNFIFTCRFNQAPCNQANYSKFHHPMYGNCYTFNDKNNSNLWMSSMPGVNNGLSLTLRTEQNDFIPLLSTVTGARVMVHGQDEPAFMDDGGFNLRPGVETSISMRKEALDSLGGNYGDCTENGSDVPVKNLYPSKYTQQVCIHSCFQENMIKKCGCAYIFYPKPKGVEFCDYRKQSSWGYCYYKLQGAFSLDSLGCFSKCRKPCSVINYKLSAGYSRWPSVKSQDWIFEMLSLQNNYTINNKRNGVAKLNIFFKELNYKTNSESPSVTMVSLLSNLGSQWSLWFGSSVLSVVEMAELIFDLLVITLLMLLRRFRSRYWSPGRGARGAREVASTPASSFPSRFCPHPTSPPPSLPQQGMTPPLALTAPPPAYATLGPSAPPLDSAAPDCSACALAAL
T3 sequence (P37090 1-638): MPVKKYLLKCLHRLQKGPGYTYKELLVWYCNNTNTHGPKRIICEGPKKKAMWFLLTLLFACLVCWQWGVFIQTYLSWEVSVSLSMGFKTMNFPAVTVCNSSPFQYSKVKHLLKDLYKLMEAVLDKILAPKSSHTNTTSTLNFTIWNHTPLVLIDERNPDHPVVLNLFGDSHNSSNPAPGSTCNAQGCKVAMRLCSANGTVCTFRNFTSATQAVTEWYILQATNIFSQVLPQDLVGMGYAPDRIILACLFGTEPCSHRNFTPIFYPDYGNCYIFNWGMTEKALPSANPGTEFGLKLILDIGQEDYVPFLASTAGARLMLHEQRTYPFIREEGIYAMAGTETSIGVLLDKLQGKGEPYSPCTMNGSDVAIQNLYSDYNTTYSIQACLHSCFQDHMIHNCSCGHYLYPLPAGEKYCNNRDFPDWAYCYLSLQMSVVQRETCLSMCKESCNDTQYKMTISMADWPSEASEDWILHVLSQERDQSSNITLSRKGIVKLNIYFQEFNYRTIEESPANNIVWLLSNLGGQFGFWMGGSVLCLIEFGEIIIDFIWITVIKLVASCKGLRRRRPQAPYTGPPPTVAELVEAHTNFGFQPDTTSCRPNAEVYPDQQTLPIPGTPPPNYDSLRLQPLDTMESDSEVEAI
T3 sequence (P37091 1-650): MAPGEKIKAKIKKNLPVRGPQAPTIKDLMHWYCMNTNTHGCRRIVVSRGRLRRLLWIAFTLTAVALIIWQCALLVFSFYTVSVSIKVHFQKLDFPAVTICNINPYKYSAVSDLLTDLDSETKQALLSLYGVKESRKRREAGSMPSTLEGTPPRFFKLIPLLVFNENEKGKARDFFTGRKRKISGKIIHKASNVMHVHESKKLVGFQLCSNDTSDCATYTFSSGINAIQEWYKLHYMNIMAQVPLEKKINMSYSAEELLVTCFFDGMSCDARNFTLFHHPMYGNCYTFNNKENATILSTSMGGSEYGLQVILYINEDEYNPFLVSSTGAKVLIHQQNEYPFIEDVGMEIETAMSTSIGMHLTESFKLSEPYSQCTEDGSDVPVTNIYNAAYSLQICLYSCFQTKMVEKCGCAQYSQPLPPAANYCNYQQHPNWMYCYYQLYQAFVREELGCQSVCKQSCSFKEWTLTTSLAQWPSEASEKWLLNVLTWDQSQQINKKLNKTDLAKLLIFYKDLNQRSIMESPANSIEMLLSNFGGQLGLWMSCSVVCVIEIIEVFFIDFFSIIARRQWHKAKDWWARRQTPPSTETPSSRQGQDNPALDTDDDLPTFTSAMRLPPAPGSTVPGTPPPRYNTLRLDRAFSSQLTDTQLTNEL
Method: as §1

Molecule | reduction of amiloride-sensitive ENaC current relative to CTRL (significance) (αβγENaC) | also measured
CC(C)NCC(O)c1ccc(O)c(O)c1 (stereo not shown) [isoproterenol, reference compound] | – | CFTR activation (CFTR): robustly activated
B1 | – | inhibition of the transepithelial PD (SPLUNC1 activity) (ENaC): abolished; also recorded: attenuated
B2 | borderline significance | –
B3 | no significant ENaC current reduction | –
